According to article PMC6451128, “Structural and functional analysis of the nucleotide and DNA binding activities of the human PIF1 helicase”:
Substitutions are numbered along the chain they refer to.

Tests used:
Conditions in all cases: protein: recombinant; tags: His tag removed, GSRM left; label: 5' 32P (PNK)
[1] = biological target: T1, hPIF1HD E307Q (human, UniProt Q9H611 206-620, E307Q); assay: EMSA; no nucleotide; apparent; 20 mM HEPES-NaOH pH 7.5 (Results say pH 7.2), 135 mM NaCl, 5% glycerol, 1 mM DTT, 1 mg/ml BSA, 20 min at 20 C; 0.4 nM T(35); G4 assay: 0.1 nM G4 DNA, 2% PEG 8000 instead of glycerol, 5 uM T(35) competitor
T1 sequence: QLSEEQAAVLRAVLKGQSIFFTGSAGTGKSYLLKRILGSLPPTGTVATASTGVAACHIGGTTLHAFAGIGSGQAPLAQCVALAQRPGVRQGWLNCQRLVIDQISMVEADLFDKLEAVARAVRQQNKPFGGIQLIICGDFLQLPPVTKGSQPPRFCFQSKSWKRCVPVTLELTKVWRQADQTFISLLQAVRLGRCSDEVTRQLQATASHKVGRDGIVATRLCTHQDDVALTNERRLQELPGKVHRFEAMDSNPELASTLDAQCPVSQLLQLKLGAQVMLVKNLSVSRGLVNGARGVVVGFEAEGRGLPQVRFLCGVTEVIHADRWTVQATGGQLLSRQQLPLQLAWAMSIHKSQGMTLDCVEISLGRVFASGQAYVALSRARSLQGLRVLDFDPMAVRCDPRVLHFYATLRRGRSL

[2] = biological target: T2, hPIF1HD P291A (human, UniProt Q9H611 206-620, P291A); assay: as above
T2 sequence: T1 sequence with P86A, Q102E

[3] = biological target: T3, hPIF1HD K556A (human, UniProt Q9H611 206-620, K556A); assay: EMSA; no nucleotide; greatest defect; 20 mM HEPES-NaOH pH 7.5 (Results say pH 7.2), 135 mM NaCl, 5% glycerol, 1 mM DTT, 1 mg/ml BSA, 20 min at 20 C; 0.4 nM T(35); G4 assay: 0.1 nM G4 DNA, 2% PEG 8000 instead of glycerol, 5 uM T(35) competitor
T3 sequence: T1 sequence with Q102E, K351A

TTTTTTTTTTTTTTTTTTTTTTTTTTTTTTTTTTT (ssDNA) [poly-T(35)]
Kd [1]: 3.6 ± 0.5 nM | Kd [2]: 1.9 ± 0.6 nM | binding signal [3]: > 50 fold decrease in affinity vs WT
